{"source": "patent US20240228986A1", "about": "“ENGINEERED CELLS, ENZYMES, AND METHODS FOR PRODUCING CANNABINOIDS” (priority 2021, published 2024)", "type_in_all_cases": "cell-based, Yarrowia", "key": {"[1]": {"system": "olivetolic acid", "experiment": "GPS1.1 fusions of MPT21 mutants, OA feed (Example 8, Table 10)", "conditions": "in words; mutagenesis of MPT21, tested as GPS1.1-F11 fusions", "protocol": "(§1) Overnight YPD (10 g/L yeast extract, 20 g/L peptone, 2% dextrose) cultures were inoculated from glycerol stocks of the appropriate strain and grown at 30° C. with 250 rpm shaking. Once cultures had reached an OD600 of 4-6, cultures were centrifuged at 500×g for 5 min, supernatants were discarded, and cell pellets were resuspended in equal volume of water. Resuspended cells were centrifuged at 500×g for 5 min, supernatants were discarded, and cells were resuspended in a volume (75 μL×OD×Vculture) of transformation cocktail (45% PEG-400, 0.1 M LiAc, 0.1 M DTT, and 25 ug/100 μL SS Salmon Sperm DNA). For each transformation, >1 μg of plasmid DNA was added to 55 μL cells/transformation cocktail and vortexed for 2 s. Transformations were incubated at 39° C. for 1 h with 250 rpm shaking. Transformations were resuspended in 750 μL YPD with 1 M sorbitol and recovered at 30° C. overnight with 250 rpm shaking. The next day, transformations were centrifuged at 500×g for 5 min, supernatants were discarded, and cell pellets were resuspended in 750 YPD. Resuspended transformations were plated on YPD with appropriate selection or YNBD (6.71 g/L yeast nitrogen base+nitrogen, 0.5% casamino acids, 2% dextrose) agar plates and grown at 30° C. for 2 days. Individual colonies were patched onto YPD plates with appropriate selection or YNBD plates and grown at 30° C. overnight. Patches were used to inoculate 0.5 mL YPD with appropriate selection or YNBD precultures in 96 w blocks and grown at 30° C. for 24-48 h with 1000 rpm shaking. For assays, 0.5 mL YPD with appropriate selection or YNBD cultures containing substrate were inoculated with 2 μL from precultures and grown at 30° C. for 2-4 days with 1000 rpm shaking with 2% glucose added every 24 h. Assay cultures were quenched by addition of 0.5 mL ethanol with 0.2% formic acid and 0.5 mg/mL pentyl-benzoic acid. Precipitates were pelleted by centrifuging at 4600×g for 10 min and then 200 μL was transferred to fresh plates, sealed, and analyzed via HPLC.\n(§2) All samples were quenched with equal volume of EtOH containing 0.2 mg/mL internal standard (3,5-Diisopropyl-2-hydroxybenzoic acid CAS #2215-21-6) centrifuged, and clarified solutions were analyzed by HPLC-MS\n(§3) • Column: 2.1×50 mm COSMOCORE PBr (Nacalai USA, Inc.) • Mobile Phase: A; 0.1% formic acid in water, B; 0.1% formic acid in acetonitrile • Flow: 0.45 mL/min • Temp: % 50 Celsius • Gradient: 20%B at 0 min, 70%B at 2.3 min, 89% B at 4.2 min, 20% B at 4.3 min, 20%B at 6 min"}, "[2]": {"system": "olivetolic acid", "experiment": "GPS-APT fusions, OA feed in vivo assay (Example 11)", "protocol": "As described below, plasmids pCL-SE-0406, pCL-SE-0664, pCL-SE-0663, pCL-SE-0662, pCL-SE-0380 (MPT4), pCL-SE-0337.MPT21, pCL-SE-0337.MPT26, and pCL-SE-0337.MPT31 were transformed into strain sCL-SE-0128. Multiple colonies per transformation were precultured for 48 h in YNB containing glucose (2%), casamino acids (0.5%), and MES (100 mM pH 6.5). Pre-culture was used to inoculate assay medium comprised of YNB containing glucose (2%), casamino acids (0.5%), MES (100 mM pH 6.5), and olivetolic acid (2 mM). Cultures were quenched with equal volume of ethanol after 48 h total growth and assayed for CBGA and FCBGA. Averages and standard deviations were calculated from replicates.\nSoluble prenyl transferase APT73.77 was fused with GPS1.1 at the N- or C-terminus with different linkers creating the plasmids shown in Table 14. These fusion proteins were expressed and screened as described in Example 8 (olivetolic acid feed)\nas §1, §2, §3"}, "[3]": {"system": "olivetolic acid", "experiment": "Linkers for GPS1.1-MPT4 fusions, in vivo assay (Example 6)", "conditions": "1 mM olivetolic acid, 72 h quench; for CBGA / FCBGA: 2% glycerol, strain sCL-SE-0128; for CBGA/FCBGA: product ratio", "protocol": "As described in detail below, plasmids pCL-SE-0380 (MPT4), pCL-SE-0406, pCL-SE-0435, and pCL-SE-0437 were transformed into strain sCL-SE-0128. Four separate colonies per transformation were precultured for 24 h in YNB containing glycerol (2%), casamino acids (0.5%), and MES (100 mM pH 6.5). Pre-culture was used to inoculate assay medium comprised of YNB containing glycerol (2%), casamino acids (0.5%), MES (100 mM pH 6.5), and olivetolic acid (1 mM). Cultures were quenched after 72 h total growth by mixing with equal volume of EtOH. Enzymes produced CBGA and FCBGA. Averages and standard deviations were calculated from replicates.\nHowever, sCL-SE-0128 expresses HMGR and GPS1.1 to increase intracellular GPP levels for prenylation of OA to CBGA. The plasmids that were transformed contain either a gene expressing a prenyl-transferase (pCL-SE-0380 (MPT4)) or a gene expressing a fusion between GPS1.1 and a prenyl-transferase with different linker sequences.\nas §1, §2, §3"}, "[4]": {"conditions": "olivetolic acid feed as in Example 8, 48 h quench, strain sCL-SE-0128"}}, "data": [{"molecule": "MPT21.9 (protein, MPT21.9 (recombinant membrane-bound prenyltransferase)) MSDNSIATKILNFGHTCWKLQRPYVVKGMISIACGLFGKELLHNTNLISWGLMWKAFFALVPILSFNFFASIMNQIYDVDIDRINKPDLPLVSGEMSIETAWILSIIVALTGLIVTIKLKSAPLFVFIYIFGIFAGFAYSVPPIRWKQNPSTNFLITISSHVGLAFTSYYASRAALGLPFELRPSFTFLLAFMTVMGMTIAFAKDISDIEGDAKYGVSTVATKLGARNMTFVVSGVLLLNYVAAILAGIIWPQAFNSNVMLLSHAILAFCLIFQTRELALANYASAPSRQFFEFIWLLYYAEYFVYVFI", "values": [{"measurement": "activity towards CBGA formation", "setting": "[1]", "result": "improved activity towards CBGA formation"}]}, {"molecule": "MPT21.18 (protein, MPT21.18 (recombinant membrane-bound prenyltransferase)) MSDNSIATKILNFGHTCWKLQRPYVVKGMISIACGLFGKELLHNTNLISWGLMWKAFFALVPILSFNFFAAIMNQIYDVDIDRINKPDLPLVSGEMSIETAWILSIIVALTGLIVTIKLKSAPLFVFIYIFGIFAGFAYSVPPIRWKQNPSTNFLITISSHVGLAFTSYYASRAALGLPFELRPSFTFLLAFMTVMGMTIAFAKDISDIEGDAKYGVSTVATKLGARNMTFVVSGVLLLNYVAAILAGIIWPQAFNSNVMLLSHAILAFCLIFQARELALANYASAPSRQFFEFIWLLYYAEYFVYVFI", "values": [{"measurement": "activity towards CBGA formation", "setting": "[1]", "result": "improved activity towards CBGA formation"}]}, {"molecule": "MPT21.2 (protein, MPT21.2 (recombinant membrane-bound prenyltransferase)) MSDNSIATKILNFGHTCWKLQRPMVVKGMISIACGLFGKELLHNTNLISWGLMWKAFFALVPILSFNFFAAIMNQIYDVDIDRINKPDLPLVSGEMSIETAWILSIIVALTGLIVTIKLKSAPLFVFIYIFGIFAGFAYSVPPIRWKQNPSTNFLITISSHVGLAFTSYYASRAALGLPFELRPSFTFLLAFMTVMGMTIAFAKDISDIEGDAKYGVSTVATKLGARNMTFVVSGVLLLNYVAAILAGIIWPQAFNSNVMLLSHAILAFCLIFQTRELALANYASAPSRQFFEFIWLLYYAEYFVYVFI", "values": [{"measurement": "ratio of CBGA/FCBGA", "setting": "[1]", "result": "improved ratio of CBGA/FCBGA"}]}, {"molecule": "APT73.77-F18-GPS1.1: fusion protein, SEQ ID NO: 66 (protein, APT73.77-F18-GPS1.1, mutant soluble aromatic prenyltransferase, geranyl diphosphate synthase fusion protein) MDEVYAAVEQTSRLLDVPCSPDRFEPVWKAFGDQLPDSHLVFSMAAGEAHRGELDFDFSLRPEGADPYTTALEHGFIEPTDHPVGSVLAEVGKRFAIASYGVEYGVVGGFKKSYAFFPLDDFPPLAQFAEVPSVPPCLAGHVETLTRLGFDDKVSIIGVNYRKNTLNVYLAASAVDTGDKLALLRAFGYPEPDARVRQFIERSFRLYPTFNWDSSAAERICFAVHTQQPGELPAPHDEPTEAFARQVPHVYEGGREFVSGVALAPSGASYYKLAALYQKARRCLDGGGGSLEDPAVWEAGKVVAKGVGTADITATTSNGLIASSEEADNAATSMSKAKFESVFPRISEELVQLLRDEGLPQDAVQWFSDSLQYNCVGGKLNRGLSVVDTYQLLTGKKELDDEEYYRLALLGWLIELLQAFWLVSDDIMDESKTRRGQPCWYLKPKVGMIAIWDAFMLESGIYILLKKHFRQEKYYIDLVELFHDISFKTELGQLVDLLTAPEDEVDLNRFSLDKHSFIVRYKTAYYSFYLPVVLAMYVAGITNPKDLQQAMDVLIPLGEYFQVQDDYLDNFGDPEFIGKIGTDIQDNKCSWLVNKALQKATPEQRQILEDNYGVKDKSKELVIKKLYDDMKIEQDYLDYEEEVVGDIKKKIEQVDESRGFKKEVLNAFLAKIYKRQK", "values": [{"measurement": "CBGA", "setting": "[2]; [4]", "result": "382 ± 26", "unit": "µM"}, {"measurement": "FCBGA", "setting": "[2]; [4]", "result": "149 ± 4", "unit": "µM"}, {"measurement": "CBGA/FCBG", "setting": "[2]; olivetolic acid feed, 48 h quench, product ratio", "result": 2.6}]}, {"molecule": "GPS1.1-F10-MPT4: fusion protein, SEQ ID NO: 19 (protein, GPS1.1-F10-MPT4, geranyl diphosphate synthase, membrane-bound prenyltransferase fusion protein) MSKAKFESVFPRISEELVQLLRDEGLPQDAVQWFSDSLQYNCVGGKLNRGLSVVDTYQLLTGKKELDDEEYYRLALLGWLIELLQAFWLVSDDIMDESKTRRGQPCWYLKPKVGMIAIWDAFMLESGIYILLKKHFRQEKYYIDLVELFHDISFKTELGQLVDLLTAPEDEVDLNRFSLDKHSFIVRYKTAYYSFYLPVVLAMYVAGITNPKDLQQAMDVLIPLGEYFQVQDDYLDNFGDPEFIGKIGTDIQDNKCSWLVNKALQKATPEQRQILEDNYGVKDKSKELVIKKLYDDMKIEQDYLDYEEEVVGDIKKKIEQVDESRGFKKEVLNAFLAKIYKRQKGGAEAAAKEAAAKAAEAAAKEAAAKAAEAAAKEAAAKAAEAAAKEAAAKAGGMSDNSIATKILNFGHTCWKLQRPYVVKGMISIACGLFGRELFNNRHLFSWGLMWKAFFALVPILSFNFFAAIMNQIYDVDIDRINKPDLPLVSGEMSIETAWILSIIVALTGLIVTIKLKSAPLFVFIYIFGIFAGFAYSVPPIRWKQYPFTNFLITISSHVGLAFTSYSATTSALGLPFVWRPAFSFIIAFMTVMGMTIAFAKDISDIEGDAKYGVSTVATKLGARNMTFVVSGVLLLNYLVSISIGIIWPQVFKSNIMILSHAILAFCLIFQTRELALANYASAPSRQFFEFIWLLYYAEYFVYVFI", "values": [{"measurement": "CBGA", "setting": "[3]", "result": "350 ± 17", "unit": "µM"}, {"measurement": "FCBGA", "setting": "[3]", "result": "54 ± 1", "unit": "µM"}, {"measurement": "CBGA/FCBGA", "setting": "[3]", "result": 6.5}]}, {"molecule": "GPS1.1-F5-MPT4: fusion protein, SEQ ID NO: 17 (protein, GPS1.1-F5-MPT4, geranyl diphosphate synthase, membrane-bound prenyltransferase fusion protein) MSKAKFESVFPRISEELVQLLRDEGLPQDAVQWFSDSLQYNCVGGKLNRGLSVVDTYQLLTGKKELDDEEYYRLALLGWLIELLQAFWLVSDDIMDESKTRRGQPCWYLKPKVGMIAIWDAFMLESGIYILLKKHFRQEKYYIDLVELFHDISFKTELGQLVDLLTAPEDEVDLNRFSLDKHSFIVRYKTAYYSFYLPVVLAMYVAGITNPKDLQQAMDVLIPLGEYFQVQDDYLDNFGDPEFIGKIGTDIQDNKCSWLVNKALQKATPEQRQILEDNYGVKDKSKELVIKKLYDDMKIEQDYLDYEEEVVGDIKKKIEQVDESRGFKKEVLNAFLAKIYKRQKGGGGSGGGGSGGGGSMSDNSIATKILNFGHTCWKLQRPYVVKGMISIACGLFGRELFNNRHLFSWGLMWKAFFALVPILSFNFFAAIMNQIYDVDIDRINKPDLPLVSGEMSIETAWILSIIVALTGLIVTIKLKSAPLFVFIYIFGIFAGFAYSVPPIRWKQYPFTNFLITISSHVGLAFTSYSATTSALGLPFVWRPAFSFIIAFMTVMGMTIAFAKDISDIEGDAKYGVSTVATKLGARNMTFVVSGVLLLNYLVSISIGIIWPQVFKSNIMILSHAILAFCLIFQTRELALANYASAPSRQFFEFIWLLYYAEYFVYVFI", "values": [{"measurement": "CBGA", "setting": "[3]", "result": "333 ± 129", "unit": "µM"}, {"measurement": "FCBGA", "setting": "[3]", "result": "49 ± 15", "unit": "µM"}, {"measurement": "CBGA/FCBGA", "setting": "[3]", "result": 6.8}]}]}
